For this assay, the target named is T1, 人CD7 (human CD7 on the surface of Jurkat, Molt4, CCRF-CEM and Hut78 cells) (human, UniProt P09564 26-240).
T1 construct: whole, on cells; also called CD7抗原
T1 sequence (looked up): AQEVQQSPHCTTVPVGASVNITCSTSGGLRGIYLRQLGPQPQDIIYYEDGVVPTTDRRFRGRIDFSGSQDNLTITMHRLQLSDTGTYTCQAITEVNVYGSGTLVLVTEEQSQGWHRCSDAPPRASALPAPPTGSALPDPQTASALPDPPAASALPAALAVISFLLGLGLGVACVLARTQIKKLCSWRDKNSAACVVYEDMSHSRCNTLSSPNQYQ
Nature of the assay: FACS, 0.15μg/100μl antibody on 2×10^5 Jurkat, Molt4, CEM and Hut78 cells (high in human CD7). In general terms: In flow cytometry, cells or beads pass a laser one at a time.

B1: 单克隆抗体HIT7 (CD7-HIT7, mouse anti-human CD7 monoclonal antibody) (antibody, V domains shown)
VH: QVQLQESGPGLVKPSQTVSLTCTVTGISITTGNYRWSWIRQFPGNKLEWIGYIYYSGIITYNPSRTSRTTITRDISKNQFFLEMNSLTAEDTATYYCARERGIYYDSLWYFDVWGAGTTVTVSS
VL: DIVLTQSPASLAVSLGQRATISCRASKSVSASGYSYMHWYQQKPGQPPKLLIYLASNLESGVPARFSGSGSGTDFTLNIHPVEEEDAVTYYCQHSRELPYTFGGGTKLEIKR
notes: also called 本发明单克隆抗体; 鼠抗人CD7单克隆抗体
On to B1, for which the binding result is given as “binds”.

For the origin of these results see CN116925225A (CAS BLOOD HEMATONOSIS HOSPITAL INST OF BLOOD HEMATONOSIS CAS, dated 2023).
